Laboratory results as given in patent publication US20040152079A1.

Target: PMN receptor for mini TyrRS (on human PMNs) (human)
Assay: competition with ^125I-mini TyrRS on human PMNs (FIG. 10)

fold of the dissociation constant against human mini TyrRS: < 200 fold
Substance: S. cerevisiae TyrRS (from UniProt P36421 1-394) (enzyme)
